These are literature values, as cited in PMC10775509.

pKd: −log10 of the molar value. Where two headings read alike, the source gives them in different places.

Series [1] addresses TREM-1 (Mus musculus) (UniProt Q9JKE2).
The target is the same in series [2]. The source holds these as a separate data set.

Chain of UniProt Q9JKE2 (Q9JKE2 21-230): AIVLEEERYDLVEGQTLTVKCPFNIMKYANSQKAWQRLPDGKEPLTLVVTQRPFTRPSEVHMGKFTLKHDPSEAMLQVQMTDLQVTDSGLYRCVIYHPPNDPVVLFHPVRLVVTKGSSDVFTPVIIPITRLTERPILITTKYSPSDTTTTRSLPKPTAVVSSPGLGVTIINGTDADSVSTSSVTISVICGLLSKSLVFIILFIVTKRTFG

For CIRP (from UniProt P60824), the pKd in series [1] is 6.93.

HMGB1 (from UniProt P63158): the pKd in series [2] was 4.45.
